The record followed here is patent KR20220139244A (dated 2022).

Where two headings read alike, the source gives them in different places.

The term Kd denotes the equilibrium constant for the complex coming apart. As usually defined, the koff is the first-order rate constant of dissociation. As a reminder, the kon is the rate constant with which the complex forms. The IC50 is the midpoint of a concentration-inhibition curve. The low end stands for greater potency, the high end for weaker potency.

For test [1], the target named is T1, SARS-CoV-2 RBD protein, wild type (recombinant) (SARS-CoV-2, UniProt P0DTC2 319-541). The experiment in a line: BLI. For orientation: BLI is a label-free optical method that tracks binding on a fibre tip over time.
Test [2] addresses T2, SARS-CoV-2 spike 501Y.V2 (pseudovirus of Tables 8/23) (SARS-CoV-2). Put plainly: cell-based or functional assay.
The target in test [3] is SARS-CoV-2 spike 'D614 or G614' (pseudovirus of Table 23) (SARS-CoV-2, UniProt P0DTC2 14-1273). The experiment in a line: cell-based or functional assay.
Test [4] has as its target T1, SARS-CoV-2 RBD protein, wild type …. Put plainly: BLI (Octet), IgG culture supernatant.
Test [5] has as its target T2, SARS-CoV-2 spike 501Y.V2 (pseudovirus …). Put plainly: cell-based or functional assay. This is another data set of the same source.

B1: No. 32 antibody (Full IgG; Table 3/4 numbering) (antibody, V domains shown)
VH: EVQLVQSGGGLIQPGGSLRLSCAASEFIVSSNYMTWVRQAPGKGLEWVSIIYPGGSTYYADSVKGRFTISRDNSKNTLYLRMNSLRAEDTAVYYCARDLPLTGTTLDYWGQGTLVTVSS
VL: not shown
As to B1, in test [1], the Kd came to 132 pM, the koff was 0.000103 s⁻¹ and the on-rate (kon) worked out at 779000 M⁻¹ s⁻¹. In test [2], the IC50 came out at 0.06 µg/mL. Moreover, half-maximal inhibition in test [3] (IC50) required 0.00325 µg/mL. In addition, the Kd in test [4] turned out to be 147 pM.

B2: No. 139 antibody (Full IgG) (antibody, V domains shown)
VH: QITLKESGPTLVKPTQTLTLTCSFSGFSLSTSGVGVGWIRQPPGKALEWLALIDWDDNKYHTTSLKTRLTISKDTSKNQVVLTMTNMDPVDTATYYCARIPGFLRYRNRYYYYGMDVWGQGTTVTVSS
VL: ELVLTQPPSVSAAPGQKVTISCSGSSSNIGNNYVSWYQQLPGTAPKLLIYDNNKRPSGIPDRFSGSKSGTSATLGITGLQTGDEADYYCGTWDSSLSAGVFGGGTELTVL
Regarding B2, the values for the half-maximal inhibitory concentration (IC50) in test [5], in test [2] and in test [3] were 0.33 µg/mL, 0.33 µg/mL and 0.00035 µg/mL, respectively.
